Measurements as given in article PMC8211822, “CRISPR-Associated Primase-Polymerases are implicated in prokaryotic CRISPR-Cas adaptation” (Nature Communications, 2021).

What was measured:
[1] = target: the molecule itself; test: SEC; MpCAPP-MBP on Superdex 200 10/300
[2] = target: T1, MpAgo, recombinant purified (Marinitoga piezophila, UniProt H2J4R4 1-639); test: pull-down; bait MpCAPP-MBP (20 µg) pre-bound to amylose resin and washed; one prey protein (20 µg) added in 200 µl; 25 mM HEPES pH 7.5, 100 mM NaCl, 50 mM KCl, 3 mM MgCl2, 5% glycerol, 0.5 mM TCEP, 0.1% IGEPAL CA-630; 4 °C, 45 min; Coomassie-stained SDS-PAGE; conditions: both partners purified
T1 construct: Argonaute, Marinitoga piezophila, expressed from pET-6His-MBP-MpAgo (Addgene, number not given); His-MBP tag removed with HRV 3C protease; source: E. coli BL21(DE3)pLysS, purified (CoHis resin, tag removal, heparin, Superdex 200)
T1 sequence (looked up): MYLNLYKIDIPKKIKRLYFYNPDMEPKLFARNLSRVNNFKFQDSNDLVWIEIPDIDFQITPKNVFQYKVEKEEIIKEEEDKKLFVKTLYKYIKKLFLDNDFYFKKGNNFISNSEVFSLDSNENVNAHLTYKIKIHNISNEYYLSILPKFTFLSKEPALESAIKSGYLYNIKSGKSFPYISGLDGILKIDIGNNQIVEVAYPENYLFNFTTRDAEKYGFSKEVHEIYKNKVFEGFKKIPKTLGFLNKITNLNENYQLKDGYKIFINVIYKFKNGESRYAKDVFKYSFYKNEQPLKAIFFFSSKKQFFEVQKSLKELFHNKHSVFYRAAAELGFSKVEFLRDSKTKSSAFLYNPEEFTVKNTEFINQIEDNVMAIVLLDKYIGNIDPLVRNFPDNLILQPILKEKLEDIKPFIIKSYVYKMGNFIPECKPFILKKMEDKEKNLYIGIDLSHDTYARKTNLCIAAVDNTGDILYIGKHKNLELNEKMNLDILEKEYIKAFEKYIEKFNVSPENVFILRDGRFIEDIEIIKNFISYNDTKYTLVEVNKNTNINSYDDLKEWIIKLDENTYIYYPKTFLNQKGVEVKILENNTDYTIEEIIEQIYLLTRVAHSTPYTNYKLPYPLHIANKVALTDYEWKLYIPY

binding result [2]: binds
B1: MpCAPP with C-terminal MBP fusion (MpCAPP-MBP), recombinant (enzyme, Marinitoga piezophila, UniProt H2J4R1 1-546, looked up)
chain: MNFKELAFKAEEDFDFEKAIEYYKKAFNELTINDDSLIRYANLLFDFQKFEEAEPIFEKIVSEINDSEYMSKLAIIYEENNKFEKALKIYKELGIESKVKELSDKIELKAPSQNAIKRFMTLFSGREDVFSIQYEGGYRPIRRPLNFHDIKDHFSGKKTLGIYLLKKNDTVKFAAYDIDIKKHYLNREDKFVYEENSKKVAKRLSRELNLENIIHYFEFTGNRGYHIWIFFDIPVSAYKIKYIMEKILDRIELEEGIDVEIFPKQTSLNGGLGNLIKVPLGVHKKTGKKCLFVDNDFNVIENQIEFLNNIKENKATEIDKLFREIFNENDYDDFNVTYKKRTTSSKNSASKKIKSSIRKTLPKSNKNIFTQMIEGCHILKQINEKIEKEAYITEEEEMIFIKSLANLENSKKFIEMKLSQTINFSKKRIDMIIKQSLGVPITCEEIRKIILNKDISLSLENCTCKFQGNYNSPYAIVENIEEMFLDKIDINDIAKKIVEKNAEKFEIEKEIKNLKRMIAKKMGDSKELRTEIGTIKRFGDDIEIIL
notes: MpCAPP, Marinitoga piezophila, Marpi_0402 / WP_014295918.1; the MBP fusion has a size of ~108 kDa; Codon-optimised gene in Supplementary Note 4; cloning details in Supplementary Data 3; also called MpCAPP WT; CAPP WT (C-terminal MBP); source: E. coli BL21 (DE3), purified (cobalt NTA, amylose resin); not shown: MBP, C-terminal, kept
binding result [1]: binds
